Measured values taken from patent US20020155500A1 (CURIS, published 2002).

Tests used:
[1] = molecular target: T1, ALK-4 (transfected cDNA, on cells) (UniProt P36896 24-505, limits assumed); assay: affinity cross-linking of ^125I-OP1 to COS-1 cells transfected with ALK4 and daf-4 cDNA; immunoprecipitation with ALK antiserum, autoradiography
T1 construct: whole, on cells
T1 sequence (looked up): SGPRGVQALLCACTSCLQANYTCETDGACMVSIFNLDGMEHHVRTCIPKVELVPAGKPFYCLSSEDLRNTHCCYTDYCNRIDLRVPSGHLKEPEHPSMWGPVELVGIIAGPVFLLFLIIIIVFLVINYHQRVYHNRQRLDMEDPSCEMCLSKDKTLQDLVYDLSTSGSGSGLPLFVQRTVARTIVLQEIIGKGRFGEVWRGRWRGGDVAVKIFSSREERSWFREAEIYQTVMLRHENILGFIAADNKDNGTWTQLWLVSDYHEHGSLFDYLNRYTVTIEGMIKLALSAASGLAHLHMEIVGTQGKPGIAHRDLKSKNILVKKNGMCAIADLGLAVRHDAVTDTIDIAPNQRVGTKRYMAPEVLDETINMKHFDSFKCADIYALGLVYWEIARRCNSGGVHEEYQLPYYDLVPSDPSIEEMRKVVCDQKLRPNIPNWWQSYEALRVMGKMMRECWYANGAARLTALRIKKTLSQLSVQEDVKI
Protocol: (§1) Briefly, cells in multi-well plates were washed with binding buffer (e.g., phosphate buffered saline containing 0.9 mM CaCl₂, 0.49 mM MgCl₂ and 1 mg/ml bovine serum albumin (BSA)), incubated on ice in the same buffer with labelled ligand, in the presence and absence of excess unlabelled ligand for sufficient time for the reaction to equilibrate (e.g., 3 hours.) Cells were washed and the crosslinking was done in the binding buffer without BSA together with 0.28 mM disuccinimidyl suberate for 15 min on ice. […] Cells were centrifuged again and supernatants subjected to analysis by standard SDS-gel electrophoresis using 4%-15% polyacrylamide gels, followed by autoradiography.
(§2) The gels were fixed and dried, and then subjected to autoradiography or analysis using phosphorimager (Molecular Dynamics).
(§3) In the Table, “N/T” means “not tested”. […] The values represented by “+/−”, “+”, “++”, “+++”, and “−”, are all qualitative descriptors of the relative amount of radioactivity measured when the crosslinked molecules were gel electrophoresed and subjected to autoradiography.

[2] = molecular target: T2, ALK-5 (transfected cDNA, on cells) (UniProt P36897 34-503, limits assumed); assay: affinity cross-linking of ^125I-OP1 to COS-1 cells transfected with ALK5 and daf-4 cDNA; immunoprecipitation with ALK antiserum, autoradiography
T2 construct: whole, on cells
T2 sequence (looked up): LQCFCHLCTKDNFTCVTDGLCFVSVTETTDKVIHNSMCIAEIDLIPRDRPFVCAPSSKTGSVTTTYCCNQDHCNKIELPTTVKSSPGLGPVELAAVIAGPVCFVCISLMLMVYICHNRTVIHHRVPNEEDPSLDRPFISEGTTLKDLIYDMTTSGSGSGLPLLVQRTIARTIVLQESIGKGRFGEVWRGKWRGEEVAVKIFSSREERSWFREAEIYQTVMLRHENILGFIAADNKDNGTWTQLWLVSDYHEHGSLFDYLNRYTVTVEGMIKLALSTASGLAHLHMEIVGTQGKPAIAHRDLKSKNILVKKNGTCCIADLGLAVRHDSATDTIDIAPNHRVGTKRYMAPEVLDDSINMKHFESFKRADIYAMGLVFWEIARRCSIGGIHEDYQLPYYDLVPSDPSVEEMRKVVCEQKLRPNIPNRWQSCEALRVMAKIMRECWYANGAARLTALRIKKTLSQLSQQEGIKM
Protocol: as §1, §2, §3

[3] = molecular target: ALK-1 (transfected cDNA, on cells) (Homo sapiens (Human), UniProt P37023 22-503); assay: affinity cross-linking of ^125I-BMP4 to COS-1 cells transfected with ALK1 and daf-4 cDNA; immunoprecipitation with ALK antiserum, autoradiography
ALK-1 (transfected cDNA, on cells), sequence (P37023 22-503 S172T limits assumed): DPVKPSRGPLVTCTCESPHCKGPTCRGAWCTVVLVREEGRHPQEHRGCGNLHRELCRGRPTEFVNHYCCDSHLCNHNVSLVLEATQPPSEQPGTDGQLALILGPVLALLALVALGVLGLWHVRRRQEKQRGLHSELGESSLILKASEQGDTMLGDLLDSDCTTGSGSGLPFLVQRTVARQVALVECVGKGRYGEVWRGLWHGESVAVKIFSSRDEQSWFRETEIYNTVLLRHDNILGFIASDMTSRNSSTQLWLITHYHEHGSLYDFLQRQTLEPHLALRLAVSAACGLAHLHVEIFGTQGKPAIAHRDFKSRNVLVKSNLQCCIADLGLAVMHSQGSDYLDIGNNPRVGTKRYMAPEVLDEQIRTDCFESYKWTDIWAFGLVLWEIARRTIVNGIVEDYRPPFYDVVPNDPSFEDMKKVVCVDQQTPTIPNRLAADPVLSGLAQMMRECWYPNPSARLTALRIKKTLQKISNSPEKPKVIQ
Protocol: as §1, §2, §3

[4] = molecular target: T3, ALK-2 (transfected cDNA, on cells) (Homo sapiens (Human), UniProt Q04771 21-509); assay: affinity cross-linking of ^125I-BMP4 to COS-1 cells transfected with ALK2 and daf-4 cDNA; immunoprecipitation with ALK antiserum, autoradiography
T3 construct: Expressed from cDNA in COS-1 cells or in Mv1Lu R mutant cells
T3 sequence: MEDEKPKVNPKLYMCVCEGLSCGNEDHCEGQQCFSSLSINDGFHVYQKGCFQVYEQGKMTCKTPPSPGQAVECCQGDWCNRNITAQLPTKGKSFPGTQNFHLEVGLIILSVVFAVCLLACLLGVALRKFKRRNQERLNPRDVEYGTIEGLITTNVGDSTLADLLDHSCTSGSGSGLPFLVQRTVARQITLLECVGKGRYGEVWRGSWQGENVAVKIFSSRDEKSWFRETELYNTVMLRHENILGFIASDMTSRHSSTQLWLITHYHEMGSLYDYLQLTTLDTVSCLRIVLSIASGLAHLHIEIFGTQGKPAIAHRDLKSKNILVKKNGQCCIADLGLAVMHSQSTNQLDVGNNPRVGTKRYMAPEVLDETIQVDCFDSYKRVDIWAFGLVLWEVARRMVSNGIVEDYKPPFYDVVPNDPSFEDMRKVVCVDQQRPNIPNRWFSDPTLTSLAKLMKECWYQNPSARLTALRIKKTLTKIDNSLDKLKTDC
Protocol: as §1, §2, §3

[5] = molecular target: T1, ALK-4 (transfected cDNA, on cells); assay: affinity cross-linking of ^125I-BMP4 to COS-1 cells transfected with ALK4 and daf-4 cDNA; immunoprecipitation with ALK antiserum, autoradiography
Protocol: as §1, §2, §3

[6] = molecular target: T2, ALK-5 (transfected cDNA, on cells); assay: affinity cross-linking of ^125I-BMP4 to COS-1 cells transfected with ALK5 and daf-4 cDNA; immunoprecipitation with ALK antiserum, autoradiography
Protocol: as §1, §2, §3

Measured: binding result

B1: OP-1 (osteogenic protein-1) (ligand)
chain: STGSKQRSQNRSKTPKNQEALRMANVAENSSSDQRQACKKHELYVSFRDLGWQDWIIAPEGYAAYYCEGECAFPLNSYMNATNHAIVQTLVHFINPETVPKPCCAPTQLNAISVLYFDDSSNVILKKYRNMVVRACGCH
modifications: ^125I label (radioiodinated, residue not stated); unlabeled when used as competitor
no binding: [1] | [2]

B2: BMP-4 (ligand, UniProt P12644 293-408, looked up)
chain: SPKHHSQRARKKNKNCRRHSLYVDFSDVGWNDWIVAPPGYQAFYCHGDCPFPLADHLNSTNHAIVQTLVNSVNSSIPKACCVPTELSAISMLYLDEYDKVVLKNYQEMVVEGCGCR
modifications: ^125I label (radioiodinated, residue not stated)
no binding: [3] | [4] | [5] | [6]
